Laboratory results as given in the DeepSol protein solubility set.

Experiment: soluble on expression in E. coli; label from the status in PepcDB or PDB records

| Sequence | soluble on expression in E. coli |
| --- | --- |
| SEGSASEVLKEWIVTGKKKNKKKKSKPKPASEASGSAPDSSKSAPIQEEQPASSEKGSINGYHVNGAINDAESVDSLSEGLETLSIDARELEDPEFAAAETLDRTGSVLENGVSDFEPKSLTAHSISNVQQSRNAAKSLSRTTPGAQVSNLGMENVPLSSTNKKLGSNIEKSVKDLQRCTVSLARYRVVVKEEMDASIKKMKQAFAELQSCLMDREVALLAEMDKVKAEAMEILLSRQKKAELLKKMTDVAVRMSEEQLVELRADIKHFVSERKYDEDLGRVARFTCDVETLKQSIDSFGQVSHPKNSYSTRSRCSLVAPVSLSGPSDGSAASSSPDASVPSLPGANKRNCAPREASAAMTNSSDRPCQAHREVFPGNRRGGQGYRAQSQKTADPSNPGRHDSVGRYRNSSWYSSGPRYQGVPPQAPGNAGERSRPYSAGTNGTGAISEPSPPKPSFKKGLPQRKPRASQAEAANS | not soluble |
| DIVLTQSPATLSVTPGNSVSLSCRASQSIGNNLHWYQQKSHESPRLLIKYASQSISGIPSRFSGSGSGTDFTLSINSVETEDFGMYFCQQSNSWPYTFGGGTKLEITGGGGSGGGGSGGGGSDIQLQESGPSLVKPSQTLSLTCSVTGDSITSDYWSWIRKFPGNRLEYMGYVSYSGSTYYNPSLKSRISITRDTSKNQYYLDLNSVTTEDTATYYCANWDGDYWGQGTLVTVSAAHHHHHH | soluble |
| MTGSVVVAGLGPGAQELITPEVSAALALATDIVGYAPYVARVAERDGLQRHASDNREELDRAGFALRLATEGRHVVIVSSGDPGVFAMAAALFEAIEAGDPSWRELDIRVLPGIS | not soluble |
| MSLSLVSQYIDLTEHFQNLIAVILKNPEKVWQMQLNYLEDALSLAQAQFNYWLEGKPLPINDQRFNGEDWINNPFFNLLSQHYLLANEHMNSLLENMEYGDENLAKRVRFFTRQYLDALSPANFIHTNPQLMAETLQSHGKNLLRGLHNLLSDVEAGSSRLIIKMTDTEAFKIGENLATTPGKVIFRNSMMELIQYCPRTTKAKSIPLLIVPPWINKYYILDLSPHNSLIRWLVEQGITVFIISWVNPDETYANKSFYDYLNEGPREAISVIQKQLRVKQVNTLGFCIGGTLLASLLAYNKATKDLSIRSATFLAAMIDFSDPGDIAVFIDEQQINKLEEEMKSKGYLAGKFMASSFNSLRANDLIWSFFIKNYLRGKSPVPFDILYWNADSTNMPATMHSQYLRWMYLHNNLIKPGKIRLNHIPVDVTNIDIPTFFLSTQKDHIAPWKTTYKGFELMKGPKRFVLGGSGHIAGIINPPTQQKYGYRTNNSMDLSAEQWFEKSKEHSGSWWPEWLNWLKLHSGRLINAPDINHLPFAPIMDAPGSYVLKKEGHHHHHH | soluble |
| MGSDKIHHHHHHMNKEHICFDFDSNPAFQTIDYEVAARSFVPGYESIFNMAVALLDASVPEPAHLLIVAAGGGMELITFGQARSHWLFTGVDPSAKMLAIAQEKVAKQGLTNRVKLHQGLTHELPVTTLYDAATCILAMHFLPDDGAKLLLLQSISQRLKPGAKLILVDLCEEKGSERFNDFLKAYKYHARNLGMSPEIVEETASKVVHIHCISEERTIELLQEANFSKITRFFTALWFRGWIATKNT | not soluble |
| MSLTGELHPIFNADALGASHRLHAHTHGDGTKIVGYYNKHLRLGRFTEQTYKSWHAEVDAKASSILNGSGSLLAFYGDHIIEVVDREGKKITLTVNGGIKQVLWHPLAYLDSCLVVLTGQETIEIYELNEPRYEKPTLVLNEPTSQLGISSRVIDITNIAFAPDGLSLYLFSTSEGGDVHVICPLLPSRIKADRAKWARQWNKATALYSTLTKDTPDDAKVATIEYLEFVTQLLQAIEKNGSDGELVIPEHRRRTISQGPYNIHGFPEKLYSAVGTKLTVVPLGESEAHLLLLSFDDSTNILLFPSTEVLMSWTKDLKNAYTLMLVEEFTATGTAFATCDGVAVLGIDSAQRVEIPYLQALEDCIRDCNLAALQDINFTSSICKIPGKFHSVARFNAPGNKGIILVGDHHAKIVPSTEAAKSDTETELDSQPGKEPTYTVCFPNSLEEILNTNKELQRRKHQPLPLVPPALKNEGHHHHHH | soluble |
| MPPVYSQPELSISIAGLRLQRPVGNASGILGWEPREARLVEEGGGGFFVAKSVTYQPRKGYPQPHLYPVAGGIVNAVGLANPGFREASKMLAQTVEEASIPVIASIAGGAPGEWVEMASTLEEAGVSAVELNLSCPHFAGGGLELGQDPAAVASVVSAVASTLRIPVIAKLGYSDRLVDAASKALEAGARGLTLINSMRAMKIDVYAKKPVLGNRVGGLSGKPIHPIAVRAVYEVYGETRADIFAAGGVESWEDAVEFYLAGAKAVQVGAAFITIGPHVLRSIVEGVRRYLWVEGFRSLQDIVGYAHRA | soluble |
| MDLFLALRELGRPDQMNLSYLYLKKILEEELRDHDCQCQLNPDFTVTISCRVDGPHGALYIVPNSDFLKSSSFSDLSAFILNLREEIRRFGEFEAELQTGTG | not soluble |
| MGHHHHHHSHMTSLMDLTLLLARSQPELIEAHTCERIMCCVAQQASEKIDRFRAHAASVFLTLLHFDSPPIPHVPHRGELEKLFPRSDVASVNWSAPSQAFPRITQLLGLPTYRYHVLLGLVVSLGGLTESTIRHSTQSLFEYMKGIQSDPQALGSFSGTLLQIFEDNLLNERVSVPLLKTLDHVLTHGCFDIFTTEEDHPFSVKLLALCKKEIKNSKDIQKLLSGIAVFCEMVQFPGDVRRQALLQLCLLLCHRFPLIRKTTASQVYETLLTYSDVVGADVLDEVVTVLSDTAWDAELAVVREQRNRLCDLLGVPRPQLVPQPGAC | not soluble |
| PILYLHGFRSSPDSFKARLLAQAMHQRGLAGQWQCPQLPASPRQAAELALALAREQLAGQQDPRRLTVIGSSLGGYYATWLAERLGCQAVLLNPAVQAARDLATQVGEHRMYHSDAPFHFLPEYVEELRALYADPLTHPERYFLVAATGDEVLDWREMRDRYPGCRQRIVQGGDHGLSDFPRWMPEVLEFA | not soluble |
| MAGDPMTALKYLQAYPVALQQQVRQLIDEQRLGDYLSQRYPGRHAVQSDKALYSYALELKQEYLRNAPAIDKVLFDNRLDLTHRALGLHTTVSRVQGGKLKAKKEIRIASLFKEAAPEFLRMIVVHELAHFKESDHNKAFYKLCEHMLPGYHQLEFDLRVYLTWRDLQGKAGAPDLEHHHHHH | soluble |
| MTLSKRLALLGAQSAITLAKPRGLGSSLGLLDRRPFPYRQFSELTKANGRRAFLVDTLALVRSLEAQGVPSKQAEAITSAITEVLNDSLENVSESFVSKAEMQKIEMIQDSNLSKFKSEVKSSQEHHFTVLQRETEKLRGDIEKMRSELRYEIDKVTAGQRLDLNLERGRIRDELANQNTETTNLTNKLDREIHALRAQLEASKYEVIKYCIGTLVSISAVGLAVLRIMI | not soluble |
| MKRQKRDRLERAQSQGYKAGLNGRSSEHCPYQSMDARSCWLGGWRDARDDKQSGLFKLEHHHHHH | not soluble |
| MGSDKIHHHHHHMGGIYRLSLKSTEATAERLSCDTRCNYEDRDLAYSPDGRWLAIARRFSNISEDIFIRDLASAHEKRLTQGLEDIRGLSWTPDSQALVFATEDSGSSNGFTLDINTAQIRSLDVEGMSYPSSVSAEGELVYHQYHRQFQMAYFSLGDKVPGSLFPLLYSGVSHRNPDYSPEAKRIVFVSSETGYNEIWTSDINGQKLEQLTQLKSRVAYPRWSPDGSRIAFIAPDDRNEGNRIFILDLTNKNITALASSYHNHGRPSWNWQGTAVLASTADGITEFYLDNRAPRVISSLSMAVGFAKSATELVFSRDGENGLWQINLTQPEHVEQLISTDAFRAGNNWVLTASGVYFKSSNGHEQLLNYWEASSQQVTSLLRVPRSSLSGFGSMTYIPEANRLVMTLDGFPQRDIILLKHKLLK | not soluble |
| SLCQEKHTHTHSQKHLKAVCNRLSRTIGHLSAIKRMVENDKDCSEILIQLAAVKAEVNNTAKVVLKEHLAHCMVHAIEENDIQSIEELNKAIDMFMK | soluble |
| MLRITELKLPIDHPEEDLRVALLQHLGIDSSELLDFTLFKRSYDARKKSSELCFIYTIDFQVKDEAALLRKLANDRHVGPAPDVSYKVVGHAPEGLSERPIVVGFGPCGIFAGLLLAQMGFKPIILERGTEVRQRTKDTWALWRKNVLNAESNVQFGEGGAGTFSDGKLYSQIKDPKFIGRKVLHEFVKAGAPEEILYVSKPHIGTFRLTGVVENMRHQIEALGGEVRFQQRVTDLMIEDGQLLGVQLDSGEQIESRHVILALGHSARDTFRMLHGRGVFMEAKPFSVGFRIEHPQSLIDRARLGKYAGHPKLGAADYKLVHHASNGRSVYSFCMCPGGTVVAATSEPGRVVTNGMSQYSRNERNANSGIVVGISPEQDFPGSPLAGIELQERLESHAYLLGGSNYEAPAQLVGDFIAGRASTALGSVEPSYKPGVKLVDLAEALPAFAIEAIREALPAFDKQIKGFSLHDAVLTGIETRTSAPLRITRGPTMQSLNTKGLYPAGEGAGYAGGILSAGVDGIRVAEALVRDMLGIEGLEHHHHHH | soluble |
| MAHHHHHHMSSSEKKHAAWVDVVAGGFGGALAKSLLSPFQRIVVLQQLGQHKSYSIAQLVHHIYAQEGLKSFWRGNLTSMVIRVPYSGIQFLLYTQLKFLFQDWLDRRHAAAALPTHQADGSSDNS | soluble |
| MGKIKIGINGFGRIGRLVARVALQSEDVELVAVNDPFITTDYMTYMFKYDTVHGQWKHSDIKIKDSKTLLLGEKPVTVFGIRNPDEIPWAEAGAEYVVESTGVFTDKEKAAAHLKGGAKKVVISAPSKDAPMFVCGVNEDKYTSDIDIVSNASCTTNCLAPLAKVIHDNFGIIEGLMTTVHAITATQKTVDGPSSKDWRGGRAASFNIIPSSTGAAKAVGKVLPDLNGKLTGMSFRVPTVDVSVVDLTVRIEKAASYDAIKSAIKSASEGKLKGIIGYVEEDLVSTDFVGDSRSSIFDAKAGIALNDNFVKLVAWYDNEWGYSNRVIDLIRHMAKTQ | soluble |
| VDYKTVRCHFGDVELTKWITITDGFTVFSGADYDPELKEIGGKDGSIFIGTKTKHKVIKVPFWVKYNTIEDYDALQLALSSKKPKMLMFSHIPGRYYLAVQVGDLNFKEIKMNGFGEITFIVADAYAHSTSYRRIKDYTQDGNKMTFKIKNNGTAPAFPIFRIKHLGENGYIGITNETGAFAVGSPEEEDGTIVHRNETLFDYSKAIAQALEGAPNVAKLNYMPPTFDSELKRMRLDNILGSGKGGEYVAIGARGTTPGYGEHVGTRTFIINPDSNGEYTLNEHLWWKQIFIATAQDQKGFLKLCVTGENDEFLYGIETYKRKNGFETEYNFFALDDDGVGWRFYKQFEFQADRNYHNPFSMNRSRAVEIFREEDKFRIYFNGAHHHVTVPSLKGKKSRKIHLAMGTCSDSSKYINYNLFEKVNFEKMGVSHYNNIVNKYQPGDEVIINFENDTVSTKDIDSIQDVVLGSKMISIPPGESELVVHLSSWVA | not soluble |
| MGSDKIHHHHHHMRIVYRASETFKKVHASTALVKAIRGPIGSGKSVGCVLEMFRVAQQQEPNAQGVRKTRWACVRNTYPELKGTVIKTFQTWIPEQICPIKYDSPITGKMNINHPDGKTRIEAEFLFLSMDKPKDVKKLMSLELTGIWINEAQFLPVSLVTEAVTRTGRYPEKRVEEGFMGATWNGMIMDTNSPDDDHWWYQFEQGIDEETEQPLKPKGWEFFVQPGALIDITGMPLATLSDEIKRNIEQGHYDDYLGHRFVANPIAENVINHKKGHGYWFDNIQGQTLNWIKSRVCNEFATVQQGKPVFGDHFNKELHVSTEKLVPVKGWETFIGLDFGLTPAAIIGQIAPIGQLRIVDEIVATGMGIERFITEQLSPLLRSRYAECAIQIIGDPAGVQRAQTDERTCFQLLEEYGFNARPAESNNTTARLEAVRWWLSRLVGKGQPAMLISPHCKTLIKGYETGYAYRQLNVSGEEKYTETPDKNRYSHPHDANQYLCLGAMPSLFKEQVINIKTHQPLSNITGY | not soluble |
